Reference: the DeepSol protein solubility set

Assay: soluble on expression in E. coli; label from the status in PepcDB or PDB records

Sequence | soluble on expression in E. coli
MSLEQSDRDRPLADRMRPRTLDEFAGQEHILAPGKPLRVQIDRDDIGSLIFWGPPGVGKTTLAKIIAAMTHADFIEFSAVLSGIKEIKQVMADAERVRQYGTRTILFVDEIHRFNRAQQDAFLPHVERGNIKLIGATTENPSFEVNSALLSRSRVYTLTPLTEEQIVGLLRRALTDTERGLAELHVTAEDIALARIAAYASGDARSGYNVLEVAAQAAGATSERIITEQIVADALQRRVLRYDKSGEEHYNLISALHKSVRNSDPDAALYWLARMIESGEDALYIARRVVRMAVEDIGLADPNALALTLAAKDAIDFLGMPEANLALAQAVVYLSIAPKSNALYTAYGDVQADVEKTAADPVPLHLRNAPTKLMKEIGYGSGYQYAHDLEAKVADMQCLPDNLKDRVYYHPTDQGIEQRIRTRLEEIRREGHHHHHH | soluble
MLSVRTPLATIADQQQLQLSPLKRLTLADKENTPPTLSSTRVLASKAARRIFQDSAELESKAPTNPSVEDEPLLRENPRRFVVFPIEYHDIWQMYKKAEASFWTAEEVDLSKDIQHWEALKPDERHFISHVLAFFAASDGIVNENLVERFSQEVQVTEARCFYGFQIAMENIHSEMYSLLIDTYIKDPKEREYLFNAIETMPCVKKKADWALRWIGDKEATYGERVVAFAAVEGIFFSGSFASIFWLKKRGLMPGLTFSNELISRDEGLHCDFACLMFKHLVHKPAEQRVREIITNAVRIEQEFLTEALPVKLIGMNCTLMKQYIEFVADRLMLELGFNKIFRVENPFDFMENISLEGKTNFFEKRVGEYQRMGVMSNSTENSFTLDADF | soluble
MSDITLDIADFHWVTQILDTMDSGLIVLDPEYNVCVWNSFMQSYSGVLSQDILGQCLFDHFDELPRTWLETKLKASADLETRSFSSWENRPYLFKFNNFSPVSNSCDFMFQDIVITPLRSLSGEVSHIAIQVNDVSETARNRIHLRETNQHLSEISRKDGL | not soluble
MGSDKIHHHHHHMRRALRPSMELISARTSSTSSIWTPRVSQSSELVFDATGCCSSLSGSSACDRGDGIVRGITMDRQRLQALGHKVRMIPAQFVKPHVKSNKSDIIDAEAIAEAATRPTMRFAAIKSEEQADLQALHRVRDQMIGTRTRLINQMGAFCLEYDIALRQGAGLFKLDLPLVLDDLE | not soluble
MALLCYNRGCGQRFDPETNSDDACTYHPGVPVFHDALKGWSCCKRRTTDFSDFLSIVGCTKGRHNSEKPPEPVKPEVKTTEKKELCELKPKFQEHIIQAPKPVEAIKRPSPDEPMTNLELKISASLKQALDKLKLSSGNEENKKEEDNDEIKIGTSCKNGGCSKTYQGLESLEEVCVYHSGVPIFHEGMKYWSCCRRKTSDFNTFLAQEGCTKGKHMWTKKDAGKKVVPCRHDLHQTGGEVTISVYAKNSLPELSRVEANSTLLNVIIVFEGEKEFDQNVKLWGVIDVKRSYVTMTATKIEITMRKAEPMQWASLELPAAKKQEKQKDDTTD | soluble
MNKIALFVDVQNIYYTCREAYQRQFNYRKLWQHLSTQGEIVSAVAYAIHRGDDGQLKFQDALRHIGFELKLKPFIQRSDGSAKGDWDVGITIDVLDAAPNVDTVILLSGDGDFAILLEKITQKYGVKAEVYGVPQLTAKALMDATTQFNPIDDVLLL | soluble
MKIEKFKVLLYLKKSRPDKSGKAPIMGRITVNRSMVQFSCKLSCTPDLWNPRESRLNGKSNEAVEVNAKLDKLLLSIHAAFDTLVERKADFDAEAVKNLFQGSLETQMTLLAMTDIVCEELRKRIGIDRAKGTYPAYFYTRRTLAEFIQKKFHSKDIAFGQLTEQFIHDYQFFVVDDKGLTIETSRHYLAIIKKVCRKAYKEGYADKCFFAHFSLPKQEEKTPKALSRESFEKIRDLVIPEHRSSHILARDLFLFACYTGTSYADAVSVTRDNLFTDDEGSLWLKYRRKKNELQACVKLLPEALELIEKYNDDTRPTLFPMLYHPNLRRLMKCLAVLADIKEDLTYHAGRHSFASLITLEAGVPIETICKMLGHSNLQTTQRYAKVTPKKLFEDMDKYIEATKDLKLIL | not soluble
GSPNSPATGEKKECWSWESYLEEQKAITAPVSLFQDSQAVTHNKNGFKLGMKLEGIDPQHPSMYFILTVAEVCGYRLRLHFDGYSECHDFWVNANSPDIHPAGWFEKTGHKLQPPKGYKEEEFSWSQYLRSTRAQAAPKHLFVSQSHSPPPLGFQVGMKLEAVDRMNPSLVCVASVTDVVDSRFLVHFDNWDDTYDYWCDPSSPYIHPVGWCQKQGKPLTPPQDYPDPDNFCWEKYLEETGASAVPTWAFKVRPPHSFLVNMKLEAVDRRNPALIRVASVEDVEDHRIKIHFDGWSHGYDFWIDADHPDIHPAGWCSKTGHPLQPPLGPREPSSAVDSSGRIVTD | soluble
MAVHTDPFKKYLYKIGNRTSGSDKHIRKFKTFLTISAYSNILVISMIIDQLRIQKNIPDEEFDAIYPFEIRELSERHWTSVFVAKTAADFLCNQRPVKVLDIGSGAGKFCFVGAALHPSSQFHGIDIRENFIQLSNNLKEQYAVANVSFFQQDALEMDLTGYGGIYFFNSFQEKIDPTSVIDHNSKVSVEQYIQYTNHIFNELNKVPAGTKLVTYYSEDFCVPGSFRLLATHFNGELKFYLKEMEPDESDEQLNQQDISEHIDRHTFLSE | not soluble
ADPEKSYAEGPGLDGGECFQPSKFKIHAVDPDGVHRTDGGDGFVVTIEGPAPVDPVMVDNGDGTYDVEFEPKEAGDYVINLTLDGDNVNGFPKTVTVKPA | soluble
MSLSSAQQWSYVRQLQREIRRSDVLDLPLEKLPVVVFDLETSGFYPDQGDRILSIGAVKVVGLTIQEEETFYSVVHTDTVPPENILELTGLSVEELEAAPPLTSVLESFYAFIRHSTLVAHHASHEKAFMSHVTWQTMKLPFEHRVIDTSFLTKIVAPQELVTLDDCCAYYSIPVQNRHHAFEDSLMTAKLWIAAIAAAREAGFETLRDIYVHLAHQREGHHHHHH | soluble
GPGSMSLWGGFSNPTSYSDSGLEKRLEFDFAAAVDVQTFAVEELEDVLAAAGQKLQHHFSAEGLLSLEMTQCIIILTPCKLVVTSASEVMLHQVITPTIALLTSKGVRVEWASYLRKNTTSPWCAESEMSDIMAQEYAELKAAFPAGKSFLTGPVDGHHCFNFVYDNVERIAGRKEEDVQVNVFLNDVAAGLEEVNKTTQRFHALQSGEYEVMRTFAGVPCISFETNAKAAVASPTRVQKLLDTFQPTHFTVAALQDRDADESALRCNFNAFTPYTLQNRTVNLFGEGYAFHQLLFARSAD | soluble
MTDTAEKYEAVVVGCGPGGAAAAATLARNGVETLVLERGVDAGSKNVSGGLIYAEESAPYTIDGLFPDFREEAAERPVTENLIHNIAGDRVKSFDIGDLHHHDTAWADAVLRRKMDSWLAQQVHERTRETGGGLLTEVHVTGLLRERGEIVGVTTEELDPIKADIIVAADGVNSELARDAGLMDWDEPEEWFQGVKAVVDMEPEVINDRFDVASDDGAAHLFSGDLFDGVRGGGFLYTNESSLSIGTVFHLDSIAEERAEPHELLDSLLTHPLMAQWLGDEYDEREYSAKLVPDSKKAAHPSPHEDRLVLVGDAAGQMQAQGPIIKGMNHAVTAGALAAEAFADARARGDPSQAGKLYEKKLHDEGVMDKLRPTGYRVFGQLGELGPVDNLSNAIAESAVGRFGVRAAAGLLERAYSSPRLVSMIPDTKLPYVTLPTVIAEELGEPVTDENTVSPPDLGDRIGDLTYDVGDPHIELVDKSFEASGTAVTACPVSAEDFGGGCYRDEMVQTNGSEEHLVSLDTQPCVECGTCAIVADTEWEHPAGGKGVEFNQGLEHHHHHH | not soluble
GSRTGSESSRPNTALLDPSSPEFSAVVSVGDWLQAIKMDRYKDNFTAAGYTTLEAVVHMSQDDLARIGITAITHQNKILSSVQAMRTQMQQMHG | soluble
MTNGFPILRLPSKPLRSILQTMKFVELVSISFTSKVAKRHVKALNMKVSYINMFLSRLTIRLVVNFNGTLPLNFRIPDRNVSEPRKLNKKLNYMKVKEGPIFEETEVFEWKPSGIRFKEIANHVLEIFHKSEFSTLMISHDYDYKTMLQELKDFKIRKLCISSDRIQNSELRRNLLEKYSRQFRELALDYHSLKPQEFHLIVSISYNNCYLYKVPMKLEDLLVSNIFLMCIDKPCPLKQLCLFLKHWINGSNDRLEYLEMNLPANSTKTQFISIALNGIDYQLASTDKEWESANNGLIKTTVVKTGGFDIRQNDGTIATVTVDETFQKLRMFVWK | not soluble
